Assay results taken from patent publication US20200297760A1 (JUNO THERAPEUTICS, published 2020).
No end group written: not given here.

B1: AFIIFWVRR synthetic peptide K28R (SEQ ID NO: 101) (peptide)
peptide: AFIIFWVRR
notes: Synthetic 9-mer from the CD28/4-1BB junction region
B2: WVQRGNKKS synthetic peptide K28Q/L34S (SEQ ID NO: 91) (peptide)
peptide: WVQRGNKKS
modifications: not fully specified
notes: as for B1
B3: WVQRGNKKA synthetic peptide K28Q/L34A (SEQ ID NO: 92) (peptide)
peptide: WVQRGNKKA
modifications: not fully specified
notes: as for B1
B4: WVKRGRKKA synthetic peptide L34A (SEQ ID NO: 90) (peptide)
peptide: WVKRGRKKA
notes: Synthetic 9-mer from the CD28 transmembrane / 4-1BB costimulatory junction region of a CAR
B5: Synthetic peptide WVKRGRKKA (L34A) (peptide)
peptide: WVKRGRKKA
notes: Synthetic 9-mer variant of the CD28 transmembrane / 4-1BB costimulatory junction region
B6: FIIFWVKRG (peptide)
peptide: FIIFWVKRG
notes: synthetic 9-mer of the CD28-4-1BB junction; mutation: none
B7: FIIFWVSRG (peptide)
peptide: FIIFWVSRG
notes: synthetic 9-mer variant; the entry already carries the change
B8: FIIFWVLRG (peptide)
peptide: FIIFWVLRG
notes: as for B7
B9: FIIFWVQRG (peptide)
peptide: FIIFWVQRG
notes: as for B7
B10: AFIIFWVKR (peptide)
peptide: AFIIFWVKR
notes: as for B6
B11: AFIIFWVQR (peptide)
peptide: AFIIFWVQR
notes: as for B7
B12: AFIIFWVLR (peptide)
peptide: AFIIFWVLR
notes: as for B7
B13: WVKRGRKKL (peptide)
peptide: WVKRGRKKL
notes: as for B6
B14: WVSRGRKKL (peptide)
peptide: WVSRGRKKL
notes: as for B7
B15: WVQRGSKKL (peptide)
peptide: WVQRGSKKL
notes: synthetic 9-mer variant; the entry already carries the changes
B16: WVLRGRKKL (peptide)
peptide: WVLRGRKKL
notes: as for B7
B17: WVKRGRKKS (peptide)
peptide: WVKRGRKKS
notes: as for B7
B18: WVKRGLKKL (peptide)
peptide: WVKRGLKKL
notes: as for B7
B19: WVQRGAKKL (peptide)
peptide: WVQRGAKKL
notes: as for B15
B20: WVHRGRKKL (peptide)
peptide: WVHRGRKKL
notes: as for B7
B21: VAFIIFWVA (peptide)
peptide: VAFIIFWVA
notes: as for B7
B22: VAFIIFWVQ (peptide)
peptide: VAFIIFWVQ
notes: as for B7
B23: VAFIIFWVH (peptide)
peptide: VAFIIFWVH
notes: as for B7
B24: VAFIIFWVL (peptide)
peptide: VAFIIFWVL
notes: as for B7

These binders were tested against T1, HLA-B*08:01 (recombinant MHC class I molecule) (human) (assay: REVEAL MHC-peptide binding assay, stabilisation of ternary complex with recombinant MHC).
T1 construct: Recombinant MHC molecule of the ProImmune REVEAL assay
Description: (§1) Specifically, assessment was of a series of overlapping 9-mer peptides derived from the sequence […] (set forth in SEQ ID NO: 7), which contains a portion of the CD28 transmembrane domain and 4-1BB costimulatory domain spanning the junction between the domains (bond joining the two amino acids noted in underline). In addition, a series of overlapping 9-mer peptides of each of a number of different variants of this portion also were assessed, each variant containing a mutation or mutations in this region as described in Example 2.
(§2) The various 9-mer overlapping peptides were synthesized and their purity tested by MALDI-TOF Mass Spectrometry.

Row | In Vitro Score | Binder
1 | 0.3 % of positive control peptide | B1
2 | 0 % of positive control peptide | B2
3 | 0.7 % of positive control peptide | B3
4 | 3.1 % of positive control peptide | B4

What follows are binders tested against T2, HLA-A*11:01 (recombinant MHC class I molecule) (human) in the same assay as above.
T2 construct: Recombinant MHC molecule of the ProImmune REVEAL assay
Description: as §1, §2

Row | In Vitro Score | Binder
5 | 1.5 % of positive control peptide | B1
6 | 5 % of positive control peptide | B2
7 | 0.8 % of positive control peptide | B3
8 | 3.1 % of positive control peptide | B4

What follows are binders tested against T3, HLA-A*03:01 (recombinant MHC class I molecule) (human) (assay: REVEAL MHC-peptide binding assay, recombinant MHC, score normalised to positive control = 100).
T3 construct: Recombinant MHC used in the ProImmune REVEAL assay
Description: as §1, §2

Row | In Vitro Score | Binder
9 | 0.9 % of positive control peptide | B5
10 | 0.7 % of positive control peptide | WVQRGNKKS (not fully specified, Synthetic 9-mer junction variant) [Synthetic peptide WVQRGNKKS (K28Q/L34S as labelled)]
11 | 1.2 % of positive control peptide | WVQRGNKKA (not fully specified, Synthetic 9-mer junction variant) [Synthetic peptide WVQRGNKKA (K28Q/L34A as labelled)]

Each binder was assayed against T4, HLA-A*02:01 (recombinant MHC class I molecule) (human) in the same assay as above.
T4 construct: Recombinant MHC used in the ProImmune REVEAL assay; also called HLA-A2:01
Description: as §1, §2

Row | In Vitro Score | Binder
12 | 1.4 % of positive control peptide | AFIIFWVRR (Synthetic 9-mer junction variant) [Synthetic peptide AFIIFWVRR (K28R)]
13 | 4.5 % of positive control peptide | B5
14 | 1.2 % of positive control peptide | WVQRGNKKS (not fully specified, Synthetic 9-mer junction variant) [Synthetic peptide WVQRGNKKS (K28Q/L34S as labelled)]
15 | 1.9 % of positive control peptide | WVQRGNKKA (not fully specified, Synthetic 9-mer junction variant) [Synthetic peptide WVQRGNKKA (K28Q/L34A as labelled)]

These binders were tested against T5, HLA-A*02:01 (human) (assay: REVEAL MHC-peptide binding assay, recombinant HLA).
T5 construct: recombinant MHC class I molecule incubated with the synthetic peptide (REVEAL, ProImmune)
Description: as §1, §2

Row | In Vitro Score | Binder
16 | 10.1 % of positive control peptide | B6
17 | 0.2 % of positive control peptide | B7
18 | 7.2 % of positive control peptide | B8
19 | 16.8 % of positive control peptide | B9
20 | 0.5 % of positive control peptide | B10
21 | 0.4 % of positive control peptide | B11
22 | 5.7 % of positive control peptide | B12
23 | 1.4 % of positive control peptide | B13
24 | 2.3 % of positive control peptide | B14
25 | 4.4 % of positive control peptide | B15
26 | 2.4 % of positive control peptide | B16
27 | 3.9 % of positive control peptide | B17
28 | 24.5 % of positive control peptide | B18
29 | 3 % of positive control peptide | B19
30 | 1.6 % of positive control peptide | B20
31 | 28.5 % of positive control peptide | B21
32 | 5.3 % of positive control peptide | B22
33 | 3.1 % of positive control peptide | B23
34 | 0.2 % of positive control peptide | B24

Each binder was assayed against T6, HLA-A*03:01 (human) (assay: REVEAL MHC-peptide binding assay, recombinant HLA).
T6 construct: recombinant MHC class I molecule incubated with the synthetic peptide (REVEAL, ProImmune)
Description: as §1, §2

Row | In Vitro Score | Binder
35 | 1.4 % of positive control peptide | B6
36 | 0.1 % of positive control peptide | B7
37 | 0.1 % of positive control peptide | B8
38 | 0.4 % of positive control peptide | B9
39 | 5.7 % of positive control peptide | B10
40 | 0.2 % of positive control peptide | B11
41 | 0.3 % of positive control peptide | B12
42 | 13.1 % of positive control peptide | B13
43 | 2.1 % of positive control peptide | B14
44 | 1.2 % of positive control peptide | B15
45 | 0.7 % of positive control peptide | B16
46 | 0.9 % of positive control peptide | B17
47 | 10 % of positive control peptide | B18
48 | 2 % of positive control peptide | B19
49 | 3.4 % of positive control peptide | B20
50 | 0 % of positive control peptide | B21
51 | 0.2 % of positive control peptide | B22
52 | 0.3 % of positive control peptide | B23
53 | 0 % of positive control peptide | B24
